Measured values published in patent US10772928B2, “Modulation and detection of a neuronal alternative splicing regulatory network for treatment and diagnosis of neurological disorders” (The Governing Council of the University of Toronto, priority 2014, dated 2020).
Values belong to the molecule of their own block, whether it stands above or below them.

Biological target: T1, nSR100 (Mus musculus, UniProt Q8BKA3)
T1 construct: host or cells: mouse N2A cells
T1 sequence (Q8BKA3 1-608): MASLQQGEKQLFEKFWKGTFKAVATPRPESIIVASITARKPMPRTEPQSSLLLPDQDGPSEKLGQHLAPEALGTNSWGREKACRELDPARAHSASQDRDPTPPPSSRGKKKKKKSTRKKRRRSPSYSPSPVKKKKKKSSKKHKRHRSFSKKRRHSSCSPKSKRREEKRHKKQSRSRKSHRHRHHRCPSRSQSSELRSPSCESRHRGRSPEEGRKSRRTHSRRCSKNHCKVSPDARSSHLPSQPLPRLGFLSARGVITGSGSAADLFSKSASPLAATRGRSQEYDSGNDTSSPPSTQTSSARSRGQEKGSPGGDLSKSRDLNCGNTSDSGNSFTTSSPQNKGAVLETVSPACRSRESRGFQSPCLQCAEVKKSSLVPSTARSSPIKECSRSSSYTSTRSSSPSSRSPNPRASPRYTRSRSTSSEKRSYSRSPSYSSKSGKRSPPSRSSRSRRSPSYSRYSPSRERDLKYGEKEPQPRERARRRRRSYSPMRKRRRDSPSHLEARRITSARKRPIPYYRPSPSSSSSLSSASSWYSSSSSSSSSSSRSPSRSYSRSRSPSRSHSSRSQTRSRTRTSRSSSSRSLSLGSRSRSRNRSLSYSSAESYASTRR
Assay: AP-MS nSR100 interaction partners from mouse N2A cells (Table 5)
Type: binding
Conditions: for AvgP (average of the SAINT scores) / MaxP (maximal SAINT score): bait Srrm4; for FoldChange between the prey Avg spectra of the bait and control purifications: bait Srrm4, 0.1 added to prevent division by 0; for AvgSpec (average number of spectra per replicate): bait Srrm4, 2 replicates; for Spectra (number of spectra for the prey in the purification of the bait): AP-MS; for SpecSum: bait Srrm4, sum of spectra over 2 replicates

[1] = bait Srrm4, biological replicate 1 (first number of the cell)
[2] = bait Srrm4, biological replicate 2 (second number of the cell)

From the text: By applying affinity purification coupled to mass-spectrometry (AP-MS), several interaction nSR100 partner proteins were detected that provide insight into mechanisms of post-translational regulation of nSR100 levels.

B1: Ccdc55 (protein, UniProt Q5NCR9 1-542, looked up)
Nuclear speckle splicing …: MAIPGRQYGLILPKKTQPLHRVLQKPSVFGSDSDDDETSVSESLQREAAKKQAMKQTKLEIQKALAEDSTVYEYDSVYDEMQKKKEENNPKLLPGKDRKPKYIHNLLKAVEIRKKEQEKRMEKKIQREREMENGEFDDKEAFVTSAYKKKLEERAEEEEREKRAAALEAHLDVTKQKDLSGFYRHLLNQAVGEEAAPKSSFREARTVIKEEKLRGYPDETNSESRPPQQSCVLQRGAQEAEENPDADREFDDESSEDGEKRDHKVKSRGEDTGASMKHPKHHKNRAHSRSSSEERGLGTKHHSRGSQSRGHEHQDRQSRDQESCHKDRSHREEKSSHRHREASHKDHYWKKHEQEDKLKGREQEERQDREGKREKYSSREQERDRQRNDHDRYSEKEKKRKEKEEHTKARRERCEDSGKHREREKPEGHGQSSERHRDRRESSPRSRPKDDLDQERSSKARNTEKDKGEQGKPSHSETSLATKHRLAEERPEKGSEQERPPEAVSKFAKRSNEETVMSARDRYLARQMARINAKTYIEKEDD
AvgP (average of the SAINT scores): 1
MaxP (maximal SAINT score): 1
FoldChange between the prey Avg spectra of the bait and control purifications: 75
AvgSpec (average number of spectra per replicate): 7.5
Spectra (number of spectra for the prey in the purification of the bait) [1]: 5
Spectra (number of spectra for the prey in the purification of the bait) [2]: 10
SpecSum: 15

B2: Poldip3 (protein, UniProt Q8BG81 2-420, looked up)
Polymerase delta-interacting …: ADLSLDELIRKRGTAAKGRLSVRPGIGGVRSRVGIQHSLVNQPARTATFQQRFDARQKIGLSDARLKLGVKDAREKLLQKDARFRIKGKVQDAREMLNSRKQQGTVPQKPRQVADAREKISLKRRSPAAFTSPPIGTVTPALKLTKTIQVPQQKAMVPLHAHPAGMRINVVNNHQAKQNLYDLDEDDDIVVPVPPKQMKFAATGSLVHHMTGLSSSKLSMSKALPLTKVVQNDAYTAPVLPSSVRTKALTSMSRTLVNKEEPPKELPPAEPVLSPLEGTKMTVNNLHPRVTEEDIVELFCVCGALKRARLVHPGVAEVVFVKKDDAITAYKKYNNRCLDGQPMKCNLHMNGNVITSDQPILLRLSDSPSVKKESELPRRGNPASSNPPAEVDPDTVLRALFKSSGASVTTQPTEFKIKL
AvgP (average of the SAINT scores): 1
MaxP (maximal SAINT score): 1
FoldChange between the prey Avg spectra of the bait and control purifications: 65
AvgSpec (average number of spectra per replicate): 6.5
Spectra (number of spectra for the prey in the purification of the bait) [1]: 7
Spectra (number of spectra for the prey in the purification of the bait) [2]: 6
SpecSum: 13

B7: Csnk2a2 (protein, UniProt O54833 1-350, looked up)
Casein kinase II subunit …: MPGPAAGSRARVYAEVNSLRSREYWDYEAHVPSWGNQDDYQLVRKLGRGKYSEVFEAINITNNERVVVKILKPVKKKKIKREVKILENLRGGTNIIKLIDTVKDPVSKTPALVFEYINNTDFKQLYQILTDFDIRFYMYELLKALDYCHSKGIMHRDVKPHNVMIDHQQKKLRLIDWGLAEFYHPAQEYNVRVASRYFKGPELLVDYQMYDYSLDMWSLGCMLASMIFRKEPFFHGQDNYDQLVRIAKVLGTDELYGYLKKYHIDLDPHFNDILGQHSRKRWENFIHSENRHLVSPEALDLLDKLLRYDHQQRLTAKEAMEHPYFYPVVKEQSQPCAENTVLSSGLTAAR
AvgP (average of the SAINT scores): 1
MaxP (maximal SAINT score): 1
FoldChange between the prey Avg spectra of the bait and control purifications: 10
AvgSpec (average number of spectra per replicate): 20
Spectra (number of spectra for the prey in the purification of the bait) [1]: 16
Spectra (number of spectra for the prey in the purification of the bait) [2]: 24
SpecSum: 40

The remaining lines, values ahead:

AvgP (average of the SAINT scores): 1
MaxP (maximal SAINT score): 1
FoldChange between the prey Avg spectra of the bait and control purifications: 18
AvgSpec (average number of spectra per replicate): 9
Spectra (number of spectra for the prey in the purification of the bait) [1]: 8
Spectra (number of spectra for the prey in the purification of the bait) [2]: 10
SpecSum: 18
B3: Api5 (protein, UniProt O35841 1-504, looked up)
Apoptosis inhibitor 5: MPTVEELYRNYGILADATEQVGQHKDAYQVILDGVKGGTKEKRLAAQFIPKFFKHFPELADSAINAQLDLCEDEDVSIRRQAIKELPQFATGENLPRVADILTQLLQTDDSAEFNLVNNALLSIFKMDAKGTLGGLFSQILQGEDIVRERAIKFLSTKLKTLPDEVLTKEVEELILTESKKVLEDVTGEEFVLFMKILSGLKSLQTVSGRQQLVELVAEQADLEQAFSPSDPDCVDRLLQCTRQAVPLFSKNVHSTRFVTYFCEQVLPNLSTLTTPVEGLDIQLEVLKLLAEMSSFCGDMEKLETNLRKLFDKLLEYMPLPPEEAENGENAGNEEPKLQFSYVECLLYSFHQLGRKLPDFLTAKLNAEKLKDFKIRLQYFARGLQVYIRQLRLALQGKTGEALKTEENKIKVVALKITNNINVLIKDLFHIPPSYKSTVTLSWKPVQKVEIGQKRTSEDTSSGSPPKKSPGGPKRDARQIYNPPSGKYSSNLSNFNYERSLQGK

AvgP (average of the SAINT scores): 1
MaxP (maximal SAINT score): 1
FoldChange between the prey Avg spectra of the bait and control purifications: 150
AvgSpec (average number of spectra per replicate): 15
Spectra (number of spectra for the prey in the purification of the bait) [1]: 15|15
Spectra (number of spectra for the prey in the purification of the bait) [2]: 15|15
SpecSum: 30
B4: P00761 (protein, UniProt P00761 1-231, looked up)
chain: FPTDDDDKIVGGYTCAANSIPYQVSLNSGSHFCGGSLINSQWVVSAAHCYKSRIQVRLGEHNIDVLEGNEQFINAAKIITHPNFNGNTLDNDIMLIKLSSPATLNSRVATVSLPRSCAAAGTECLISGWGNTKSSGSSYPSLLQCLKAPVLSDSSCKSSYPGQITGNMICVGFLEGGKDSCQGDSGGPVVCNGQLQGIVSWGYGCAQKNKPGVYTKVCNYVNWIQQTIAAN
modifications: full-length

AvgP (average of the SAINT scores): 1
MaxP (maximal SAINT score): 1
FoldChange between the prey Avg spectra of the bait and control purifications: 4.61
AvgSpec (average number of spectra per replicate): 53
Spectra (number of spectra for the prey in the purification of the bait) [1]: 58
Spectra (number of spectra for the prey in the purification of the bait) [2]: 48
SpecSum: 106
B5: Cdc37 (protein, UniProt Q61081 1-379, looked up)
Hsp90 co-chaperone Cdc37: MVDYSVWDHIEVSDDEDETHPNIDTASLFRWRHQARVERMEQFQKEKEELDRGCRECKRKVAECQRKLKELEVAESDGQVELERLRAEAQQLRKEERSWEQKLEDMRKKEKNMPWNVDTLSKDGFSKSMVNTKPEKAEEDSEEAREQKHKTFVEKYEKQIKHFGMLHRWDDSQKYLSDNVHLVCEETANYLVIWCIDLEVEEKCALMEQVAHQTMVMQFILELAKSLKVDPRACFRQFFTKIKTADHQYMEGFKYELEAFKERVRGRAKLRIEKAMKEYEEEERKKRLGPGGLDPVEVYESLPEELQKCFDVKDVQMLQDAISKMDPTDAKYHMQRCIDSGLWVPNSKSGEAKEGEEAGPGDPLLEAVPKAGNEKDVSA

AvgP (average of the SAINT scores): 1
MaxP (maximal SAINT score): 1
FoldChange between the prey Avg spectra of the bait and control purifications: 65
AvgSpec (average number of spectra per replicate): 6.5
Spectra (number of spectra for the prey in the purification of the bait) [1]: 6
Spectra (number of spectra for the prey in the purification of the bait) [2]: 7
SpecSum: 13
B6: Gsk3b (protein, UniProt Q9WV60 1-420, looked up)
Glycogen synthase kinase-3 …: MSGRPRTTSFAESCKPVQQPSAFGSMKVSRDKDGSKVTTVVATPGQGPDRPQEVSYTDTKVIGNGSFGVVYQAKLCDSGELVAIKKVLQDKRFKNRELQIMRKLDHCNIVRLRYFFYSSGEKKDEVYLNLVLDYVPETVYRVARHYSRAKQTLPVIYVKLYMYQLFRSLAYIHSFGICHRDIKPQNLLLDPDTAVLKLCDFGSAKQLVRGEPNVSYICSRYYRAPELIFGATDYTSSIDVWSAGCVLAELLLGQPIFPGDSGVDQLVEIIKVLGTPTREQIREMNPNYTEFKFPQIKAHPWTKVFRPRTPPEAIALCSRLLEYTPTARLTPLEACAHSFFDELRDPNVKLPNGRDTPALFNFTTQELSSNPPLATILIPPHARIQAAASPPANATAASDTNAGDRGQTNNAASASASNST

AvgP (average of the SAINT scores): 1
MaxP (maximal SAINT score): 1
FoldChange between the prey Avg spectra of the bait and control purifications: 385
AvgSpec (average number of spectra per replicate): 38.5
Spectra (number of spectra for the prey in the purification of the bait) [1]: 37
Spectra (number of spectra for the prey in the purification of the bait) [2]: 40
SpecSum: 77
B8: Cwc22 (protein, UniProt Q8C5N3 1-908, looked up)
Pre-mRNA-splicing factor …: MKSSVAHMKSSGHNRRETHSSYRRSSSPEDRYTEQERSPRDRGYSDYSRSDYERSRRGYSYDDSMESRSRDREKRRERERDADHRKRSRKSPSPDRSPARGGGQSSPQEEPTWKKKKDELDPLLTRTGGAYIPPAKLRMMQEQITDKSSLAYQRMSWEALKKSINGLINKVNISNISIIIQELLQENIVRGRGLLSRSVLQAQSASPIFTHVYAALVAIINSKFPQIGELILKRLILNFRKGYRRNDKQLCLTASKFVAHLINQNVAHEVLCLEMLTLLLERPTDDSVEVAIGFLKECGLKLTQVSPRGINAIFERLRNILHESEIDKRVQYMIEVMFAVRKDGFKDHPVILEGLDLVEEDDQFTHMLPLEDDYNPEDVLNVFKMDPNFMENEEKYKAIKKEILDEGDSDSNTDQGAGSSEDEEEEDEEEEGEDEEGGQKVTIHDKTEINLVSFRRTIYLAIQSSLDFEECAHKLLKMEFAESQTKELCNMILDCCAQQRTYEKFFGLLAGRFCMLKKEYMESFESIFKEQYDTIHRLETNKLRNVAKMFAHLLYTDSLPWSVLECIKLSEETTTSSSRIFVKIFFQELCEYMGLPKLNARLKDETLQPFFEGLLPRDNPRNTRFAINFFTSIGLGGLTDELREHLKNTPKVIVAQKPEAEQKKPALTSSSSESSSASDSSDSESDSSESSSESSSDASDSSSSSSTQSSTSGITAHSAKGTRKKRQGKARGEEVDKLARGHQALERRREGGREDQRHQEGRTERARSERRRAQNSRDADWRDPLAKHIDDRSHENSHSRVGNGREQGSHREPEDRHGEPKKRRERRDSFSENEKQRSRNQDSDNVRRKDRSKSRERSRRHSGHKGDDARCQNSAERRWEKPGRRPEQSRESKRSQDRRREKSPTTQK
